Bridge positions count the residues as written; N and C are the ends. Ends that are not written are not given here.
Legend:
[1] = target: HSP27, human recombinant protein (human, UniProt P04792 1-205); test: phage-binding assay
[2] = target: T1, CASQ1, human recombinant protein (human, UniProt P31415 35-396); test: phage-binding assay
T1 sequence (looked up): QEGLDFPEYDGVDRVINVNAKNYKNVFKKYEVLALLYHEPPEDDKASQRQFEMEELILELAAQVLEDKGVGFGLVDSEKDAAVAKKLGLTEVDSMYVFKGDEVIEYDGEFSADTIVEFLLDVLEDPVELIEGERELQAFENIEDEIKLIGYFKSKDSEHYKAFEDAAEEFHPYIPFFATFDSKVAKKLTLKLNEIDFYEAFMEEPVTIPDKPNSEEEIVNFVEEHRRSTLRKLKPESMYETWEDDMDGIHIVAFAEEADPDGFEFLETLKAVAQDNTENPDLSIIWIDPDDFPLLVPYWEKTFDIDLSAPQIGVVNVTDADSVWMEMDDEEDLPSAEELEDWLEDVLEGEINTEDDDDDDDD

[3] = target: T2, histidine-rich glycoprotein (human, UniProt P04196 19-525); test: phage-binding assay
T2 sequence (looked up): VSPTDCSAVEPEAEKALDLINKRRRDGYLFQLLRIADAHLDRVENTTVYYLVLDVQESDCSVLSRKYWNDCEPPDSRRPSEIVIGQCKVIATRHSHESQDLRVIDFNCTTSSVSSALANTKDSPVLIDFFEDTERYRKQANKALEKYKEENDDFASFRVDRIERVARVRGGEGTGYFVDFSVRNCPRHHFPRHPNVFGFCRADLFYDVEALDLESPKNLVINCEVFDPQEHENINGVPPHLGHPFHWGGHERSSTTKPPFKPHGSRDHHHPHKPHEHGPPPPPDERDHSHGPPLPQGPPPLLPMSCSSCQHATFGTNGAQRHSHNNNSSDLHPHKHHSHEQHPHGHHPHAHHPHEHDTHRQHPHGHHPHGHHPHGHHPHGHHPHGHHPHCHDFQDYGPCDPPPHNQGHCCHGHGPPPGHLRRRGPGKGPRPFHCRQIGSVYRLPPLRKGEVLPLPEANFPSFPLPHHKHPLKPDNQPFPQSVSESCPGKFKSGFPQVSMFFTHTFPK

[4] = target: T3, cystatin-A (human, UniProt P01040 1-98); test: phage-binding assay
T3 sequence (looked up): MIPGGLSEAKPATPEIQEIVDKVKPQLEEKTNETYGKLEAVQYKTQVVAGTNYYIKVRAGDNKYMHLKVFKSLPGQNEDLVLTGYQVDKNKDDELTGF

[5] = target: T4, CALR, human recombinant protein (human, UniProt P27797 18-417); test: circular dichroism
T4 sequence (looked up): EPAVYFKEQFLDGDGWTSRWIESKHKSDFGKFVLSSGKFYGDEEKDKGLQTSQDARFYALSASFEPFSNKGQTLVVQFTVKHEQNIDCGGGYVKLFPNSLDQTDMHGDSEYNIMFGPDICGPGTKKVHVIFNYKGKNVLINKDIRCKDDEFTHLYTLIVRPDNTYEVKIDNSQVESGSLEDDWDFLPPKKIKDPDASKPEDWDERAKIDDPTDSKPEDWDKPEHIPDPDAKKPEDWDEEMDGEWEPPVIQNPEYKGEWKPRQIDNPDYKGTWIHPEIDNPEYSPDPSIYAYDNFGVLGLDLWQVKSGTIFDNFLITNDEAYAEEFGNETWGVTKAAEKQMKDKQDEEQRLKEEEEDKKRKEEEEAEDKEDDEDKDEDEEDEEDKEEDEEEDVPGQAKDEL

Sequence of HSP27, human recombinant protein (P04792 whole entry): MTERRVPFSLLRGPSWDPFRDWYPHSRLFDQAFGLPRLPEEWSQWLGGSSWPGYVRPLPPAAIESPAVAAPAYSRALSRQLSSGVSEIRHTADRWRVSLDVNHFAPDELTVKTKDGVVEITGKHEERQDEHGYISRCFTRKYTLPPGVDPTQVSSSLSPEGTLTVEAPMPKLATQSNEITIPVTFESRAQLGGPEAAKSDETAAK

Question: Does CSEIGVRAC (disulfide 1-9) [CSEIGVRAC peptide (C1-C9 disulfide bridge)] bind [1]?
Answer: Result: binds

Question: Does CLRGFPALVC (disulfide 1-10) [CLRGFPALVC peptide (C1-C10 disulfide bridge)] bind [2]?
Answer: Result: binds

Question: Does CVGQVGGRRC (disulfide 1-10) [CVGQVGGRRC-displaying phage] bind [3]?
Answer: Result: binds

Question: Does CEARASGSRC (disulfide 1-10) [CEARASGSRC-displaying phage] bind [4]?
Answer: Result: binds

Question: Does CRQRPASGC (disulfide 1-9) [CRQRPASGC peptide (C1-C9 disulfide bridge)] bind [5]?
Answer: Result: binds

From paper PMC12955825 (Med (New York, N.Y.), 2025)
